{"source": "patent US20110318339A1", "key": {"[1]": {"target": "rHuman IGF-1 sR, (IGF-1 sR), CF (Cat# 391-GR) (human) (UniProt P08069)", "assay": "Multispot ECL; Fab 85.0 nM"}, "[2]": {"target": "rHuman CD44/Fc Chimera, CF (Cat# 3660-CD) (human) (UniProt P16070)", "assay": "Multispot ECL; Fab 85.0 nM"}, "[3]": {"target": "rHuman Notch-1/Fc Chimera, CF (Cat# 3647-TK) (human) (UniProt P46531)", "assay": "Multispot ECL; Fab 85.0 nM"}, "[4]": {"target": "rHuman HGF R/c-MET/Fc Chimera, CF (Cat# 358-MT/CF) (human) (UniProt P08581)", "assay": "Multispot ECL; Fab 85.0 nM"}, "[5]": {"target": "rHuman ErbB2/Fc Chimera, CF (Cat# 1129-ER) (human) (UniProt P04626)", "assay": "Multispot ECL; Fab 85.0 nM"}, "[6]": {"target": "rHuman EGF R/Fc Chimera, CF (Cat# 344-ER) (human) (UniProt P00533)", "assay": "Multispot ECL; Fab 85.0 nM"}, "[7]": {"target": "rHuman Erythropoietin R/Fc Chimera, CF (Cat# 963-ER) (human) (UniProt P19235)", "sequence (P19235 25-250, change not shown)": "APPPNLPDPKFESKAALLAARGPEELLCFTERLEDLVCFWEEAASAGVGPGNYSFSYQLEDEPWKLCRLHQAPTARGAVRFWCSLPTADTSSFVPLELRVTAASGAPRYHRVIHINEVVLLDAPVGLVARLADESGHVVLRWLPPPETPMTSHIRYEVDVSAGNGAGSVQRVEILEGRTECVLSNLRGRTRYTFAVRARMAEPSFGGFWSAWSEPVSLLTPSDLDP", "assay": "Multispot ECL; Fab 85.0 nM"}, "[8]": {"target": "rHuman P-Cadherin/Fc Chimera, CF (Cat# 861-PC) (human) (UniProt P22223)", "assay": "Multispot ECL; Fab 85.0 nM"}, "[9]": {"target": "rHuman IGF-1 sR, (IGF-1 sR), CF (Cat# 391-GR) (human) (UniProt P08069)", "assay": "Multispot ECL; Fab […]"}, "[10]": {"target": "rHuman CD44/Fc Chimera, CF (Cat# 3660-CD) (human) (UniProt P16070)", "assay": "Multispot ECL; Fab […]"}, "[11]": {"target": "rHuman Notch-1/Fc Chimera, CF (Cat# 3647-TK) (human) (UniProt P46531)", "assay": "Multispot ECL; Fab […]"}, "[12]": {"target": "rHuman HGF R/c-MET/Fc Chimera, CF (Cat# 358-MT/CF) (human) (UniProt P08581)", "assay": "Multispot ECL; Fab […]"}, "[13]": {"target": "rHuman ErbB2/Fc Chimera, CF (Cat# 1129-ER) (human) (UniProt P04626)", "assay": "Multispot ECL; Fab […]"}, "[14]": {"target": "rHuman EGF R/Fc Chimera, CF (Cat# 344-ER) (human) (UniProt P00533)", "assay": "Multispot ECL; Fab […]"}, "[15]": {"target": "rHuman Erythropoietin R/Fc Chimera, CF (Cat# 963-ER) (human) (UniProt P19235)", "assay": "Multispot ECL; Fab […]"}, "[16]": {"target": "rHuman P-Cadherin/Fc Chimera, CF (Cat# 861-PC) (human) (UniProt P22223)", "assay": "Multispot ECL; Fab […]"}, "[17]": {"target": "rHuman IGF-1 sR, (IGF-1 sR), CF (Cat# 391-GR) (human) (UniProt P08069)", "assay": "Multispot ECL; Fab 340 nM"}, "[18]": {"target": "rHuman CD44/Fc Chimera, CF (Cat# 3660-CD) (human) (UniProt P16070)", "assay": "Multispot ECL; Fab 340 nM"}, "[19]": {"target": "rHuman Notch-1/Fc Chimera, CF (Cat# 3647-TK) (human) (UniProt P46531)", "assay": "Multispot ECL; Fab 340 nM"}, "[20]": {"target": "rHuman HGF R/c-MET/Fc Chimera, CF (Cat# 358-MT/CF) (human) (UniProt P08581)", "assay": "Multispot ECL; Fab 340 nM"}, "[21]": {"target": "rHuman ErbB2/Fc Chimera, CF (Cat# 1129-ER) (human) (UniProt P04626)", "assay": "Multispot ECL; Fab 340 nM"}, "[22]": {"target": "rHuman EGF R/Fc Chimera, CF (Cat# 344-ER) (human) (UniProt P00533)", "assay": "Multispot ECL; Fab 340 nM"}, "[23]": {"target": "rHuman Erythropoietin R/Fc Chimera, CF (Cat# 963-ER) (human) (UniProt P19235)", "assay": "Multispot ECL; Fab 340 nM"}, "[24]": {"target": "rHuman P-Cadherin/Fc Chimera, CF (Cat# 861-PC) (human) (UniProt P22223)", "assay": "Multispot ECL; Fab 340 nM"}, "[25]": {"target": "rHuman IGF-1 sR, (IGF-1 sR), CF (Cat# 391-GR) (human) (UniProt P08069)", "assay": "Multispot ECL; Fab 170 nM"}, "[26]": {"target": "rHuman CD44/Fc Chimera, CF (Cat# 3660-CD) (human) (UniProt P16070)", "assay": "Multispot ECL; Fab 170 nM"}, "[27]": {"target": "rHuman Notch-1/Fc Chimera, CF (Cat# 3647-TK) (human) (UniProt P46531)", "assay": "Multispot ECL; Fab 170 nM"}, "[28]": {"target": "rHuman HGF R/c-MET/Fc Chimera, CF (Cat# 358-MT/CF) (human) (UniProt P08581)", "assay": "Multispot ECL; Fab 170 nM"}, "[29]": {"target": "rHuman ErbB2/Fc Chimera, CF (Cat# 1129-ER) (human) (UniProt P04626)", "assay": "Multispot ECL; Fab 170 nM"}, "[30]": {"target": "rHuman EGF R/Fc Chimera, CF (Cat# 344-ER) (human) (UniProt P00533)", "assay": "Multispot ECL; Fab 170 nM"}, "[31]": {"target": "rHuman Erythropoietin R/Fc Chimera, CF (Cat# 963-ER) (human) (UniProt P19235)", "assay": "Multispot ECL; Fab 170 nM"}, "[32]": {"target": "rHuman P-Cadherin/Fc Chimera, CF (Cat# 861-PC) (human) (UniProt P22223)", "assay": "Multispot ECL; Fab 170 nM"}}, "data": [{"substance": "Fab VH4-34_IGHD7-27*01_IGHJ4*01 & V4-6_IGLJ4*01", "values": [{"measurement": "ECL signal", "setting": "[1]", "value": 891}, {"measurement": "ECL signal", "setting": "[2]", "value": 693}, {"measurement": "ECL signal", "setting": "[3]", "value": 780}, {"measurement": "ECL signal", "setting": "[4]", "value": 998}, {"measurement": "ECL signal", "setting": "[5]", "value": 844}, {"measurement": "ECL signal", "setting": "[6]", "value": 1000}, {"measurement": "ECL signal", "setting": "[7]", "value": 817}, {"measurement": "ECL signal", "setting": "[8]", "value": 709}, {"measurement": "ECL signal", "setting": "[9]", "value": 646}, {"measurement": "ECL signal", "setting": "[10]", "value": 522}, {"measurement": "ECL signal", "setting": "[11]", "value": 649}, {"measurement": "ECL signal", "setting": "[12]", "value": 607}, {"measurement": "ECL signal", "setting": "[13]", "value": 866}, {"measurement": "ECL signal", "setting": "[14]", "value": 528}, {"measurement": "ECL signal", "setting": "[15]", "value": 494}, {"measurement": "ECL signal", "setting": "[16]", "value": 421}, {"measurement": "ECL signal", "setting": "[17]", "value": 1040}, {"measurement": "ECL signal", "setting": "[18]", "value": 959}, {"measurement": "ECL signal", "setting": "[19]", "value": 1210}, {"measurement": "ECL signal", "setting": "[20]", "value": 1240}, {"measurement": "ECL signal", "setting": "[21]", "value": 1230}, {"measurement": "ECL signal", "setting": "[22]", "value": 1210}, {"measurement": "ECL signal", "setting": "[23]", "value": 1260}, {"measurement": "ECL signal", "setting": "[24]", "value": 1160}, {"measurement": "ECL signal", "setting": "[25]", "value": 832}, {"measurement": "ECL signal", "setting": "[26]", "value": 660}, {"measurement": "ECL signal", "setting": "[27]", "value": 816}, {"measurement": "ECL signal", "setting": "[28]", "value": 757}, {"measurement": "ECL signal", "setting": "[29]", "value": 964}, {"measurement": "ECL signal", "setting": "[30]", "value": 826}, {"measurement": "ECL signal", "setting": "[31]", "value": 790}, {"measurement": "ECL signal", "setting": "[32]", "value": 744}]}]}
